Tests used:
[1] = gross appearance, histology, Oil red O, PAS, insulin stain; settings: glycan lost; control: hK18 WT mice
[2] = immunofluorescence of liver and pancreas, basal; settings: glycan lost; control: hK18 WT mice
[3] = survival after PUGNAc then Fas antibody; settings: glycan lost; control: FVB/n and hK18 WT mice
[4] = Coomassie of high salt extract, hK18 blot; settings: glycan lost; control: hK18-WT mouse line
anti-K18 pS53 blot = settings: glycan lost; control: K18 WT transfectants

B1: keratin 18 (K18, hK18): K18 S30/31/49A (Gly−) (protein)
parent chain: MSFTTRSTFSTNYRSLGSVQAPSYGARPVSSAASVYAGAGGSGSRISVSRSTSFRGGMGSGGLATGIAGGLAGMGGIQNEKETMQSLNDRLASYLDRVRSLETENRRLESKIREHLEKKGPQVRDWSHYFKIIEDLRAQIFANTVDNARIVLQIDNARLAADDFRVKYETELAMRQSVENDIHGLRKVIDDTNITRLQLETEIEALKEELLFMKKNHEEEVKGLQAQIASSGLTVEVDAPKSQDLAKIMADIRAQYDELARKNREELDKYWSQQIEESTTVVTTQSAEVGAAETTLTELRRTVQSLEIDLDSMRNLKASLENSLREVEARYALQMEQLNGILLHLESELAQTRAEGQRQAQEYEALLNIKVKLEAEIATYRRLLEDGEDFNLGDALDSSNSMQTIQKTTTRRIVDGKVVSETNDTKVLRH
other: tissue injury after STZ [1]: increases
other: keratin filament organisation [2]: no change
other: mouse lethality after PUGNAc/Fas [3]: increases
expression_or_secretion [4]: no change

B2: keratin 18 (K18, hK18): K18 Gly− (protein)
parent chain: B1 parent chain
other: K18 S34/S53 phosphorylation (anti-K18 pS53 blot): no change

— PMC3549664
